The target in this assay is mouse CBP TAZ1 (residues 340-439) (mouse, UniProt P45481 340-439). The experiment in a line: ITC; MicroCal VP-ITC; E2F4 TAD (300 uM) titrated into TAZ1 (30 uM) at 25 C; 25 mM HEPES pH 7.0, 200 mM NaCl, 5% glycerol v/v; E2F4 concentration adjusted such that N was close to 1. The following applies: both partners purified.
Sequence of mouse CBP TAZ1 (residues 340-439) (P45481 340-439): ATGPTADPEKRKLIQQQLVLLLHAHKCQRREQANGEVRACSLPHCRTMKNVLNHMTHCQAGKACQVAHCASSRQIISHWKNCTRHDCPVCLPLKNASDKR

B1: human E2F4 transactivation domain (residues 390-407) (domain or fragment, UniProt Q16254 390-407, looked up)
chain: HDYIYNLDESEGVCDLFD
notes: also called E2F4 TAD; E2F4 peptide; source: E. coli, purified (GST fusion, Superdex-75)
In the case of B1, the binding result was “binds”.

The record behind these values is publication PMC6610666, “E2F4 regulates transcriptional activation in mouse embryonic stem cells independently of the RB family” (Nature Communications, 2019).
